test: protease stability score; higher = more stable; yeast display proteolysis, trypsin and chymotrypsin;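 note: relative to predicted unfolded state with 0 unfolded-like and 1 meaning tenfold more protease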

First: SEEEKETEHVLRLFLEIFHTGDWKTLHELFDPHVRLNVGDKHWIGRENVVEQIRHFLERFKNARFHIHRIHIVGDFNDVRTEITINGRTHDTRLWLQVIDGRIESMEIKMN
Second: SEDDELIKKYIKRWLHDLVTGDEDSLEELIDPNARLDINGKELIGREWVERVTKELRIEHINPRSVRSINGKVEIETEVHVNVNGVKIILDRHLDIHKVNGKWIVKEVRVK
The protease stability score of the first is higher: 2.44 for the first, 1.14 for the second.

Going from “DEDFENASRTLKKFYEDEATGDEDALSELVDPNTRLDINGQQVHGWENFRKWIHHLGIKHVILHIRRYDSQGDKLHLETEEVHDFNGVEERRDTRLLLLKVDGKWIFKEIEVK” to “DESAVNNLVRLAKAWLRGDPKKIEHLVDKDAKAQIGDKTLHGREDLKDHADELRKDMTVDVKSVTNNNQNGQAVVDVKFEADRNGRPETHTLDAKATAHNGDIVDVKIHQDG”, the protease stability score falls from 1.41 to -0.049.

First: DESERDFRRALEIMHKVVETGNWEEAKRMFDPHVLLDVNGVLIHGREVIIKYVERIDHIRFHHDLKRIETQGDKIYADVHEDLDISINGKTIHIRTRVHIISQKYDGRWLNTEHKVE
Second: SEEEEEMRRWFEILIRAIRTGDEHVLKRLIDPDAQEDVNGKRIHGMEDMSRLLSEMRIKSWEIRRSHFVGNKIELDGHRRGHVNGRDIDDHVIIHILKIDGKWTLHRVEVS
The protease stability score of the first is lower: 0.548 for the first, 2.12 for the second.

Compared with “DEDERESHNFMHEMEKAAKTGDWRKFEEMFDPDVRTIIGDKEDHGWEVAVKLFLDLGIKVLKVKRVDVVDGRLELEMELHFNGVIRKVTLRTKKVNGRWQVKELRFE”, “SEEERDIRHSIEMLFYYFETGDWREWERLADPRARLIIGEKEHHGREELSRSLKELLDRLGVDHYEIKDKRSEIIDGRVNLHVRGHLHVNGRNQHVIVIMVAIKIDGRWLLESLEIRLH” is lower in protease stability score: 1.57 for the first, 1.3 for the second.

Going from “SHLKEDLRRALEKELQDLRTGDEEKIVRMMDPNVRLHIDGVELHGRDWLSRYAKEMRTEHIELRRFETQGNKIHIDTEVDLRYGDFRRDVHVEIIAIKVDGRWVKHETEVR” to “DEERKMYTYAHKLLKTSHDTGNEDDLTNLVDPNVRIDINGRDIHGWDFWHEMMTKLGVNVFETKHVELQGNKLHIDGTLHVDGRTHRVTINNIKIDGRWIIKHVHIE”, the protease stability score falls from -0.081 to -0.3.

Compared with “SEEEEIYKRAHKFFADVFLTGNEKELEHMLDPNVRLHVNGQDHHGWTDVFRIFNFLGADHYDVKHLDIQGDKVDLHSEVDINGRTRRIIFHSLKVNGQWKITHVQVD”, “DEEEESTKRVAKVLHHTNRTGDEKTMNEMLDPNAKQDYNGRINIGWERILEVLREWKDRLGLTRIELHIHDFDIQGDKARIDTTVDFNGVEFKLIIYVRKIDGKWVLERIEVR” is lower in protease stability score: 1.24 for the first, 0.368 for the second.

Compared with “EEEEQHMKEMAHIFIELMETGDEERLHKYFDPNWRFRIGDKHHHGRETYIHWLHQLGVDKVKVHLRHLDFQGDKLRIDSEREFDGKIEKIDIILIKFNGRWIINEIRVD”, “NEMEEYVERASRFVYELLQTGDWEKLMNNMDPNVKIRQGNKEYHGREELKRQLEELFKNWGFDRIDVEHHEIKIFENHAHIIHIMRFDGVEHELRIKALKVNGQWLFKTVEIRLH” is higher in protease stability score: 1.29 for the first, 1.36 for the second.

First: DEDKHLSQLAIELLHRFLWTGDEHDLEHLMDPNAKLEQGDKTLHGRELVLEFFDHLVEEAGITKVDHKLRRIETYGNKVNIHGDLHVNGRTIRIEIIAVKINGKWVVRSVRIK
Second: DEEEEEILRVWEILIHLFVTGDEEKFSKMADPDYKWHQGDKSRIGRESMREHIKKFLEELRIKELHLHHTHVFDGRYEADVELRGHINGRESRIKSRIILEVYNGRVKLFIIDIR
The protease stability score of the first is higher: 1.21 for the first, 0.559 for the second.

Going from “SEEHRKVEEFARHWLHNFQTGDFRRFYELVDPNVRLRQGDWEFHGREIVAEWLFVHLEHARIDDYKVNHVENYNGRSIIDSEIHGEINGRRDITRVEIILIIINGRVHYVEIRIR” to “EELERDSKEVAERLLWDTLTGDEDLLLHLMDPHVRHIVNGVKLHGREALERAIEEHLSHLGIDHIRIRHIDFRIINGKMDVHIHGESIYNGRVVHMIIIFISTKVNGKWVLEELSIEIR”, the protease stability score falls from 2.31 to 1.85.

First: SEHEHELIEFAELFREIIATGDEDALRRLLDPNTQWDFNGVDLHGRDEVIKELRRWRDRFPNMRVHIRRIRLEVINGRLQLDLHTFVEFDGVEFVQHIHLHIEKVNGRWSVHHIEVRYR
Second: DESEELAERLLEEMEELILTGDWEKFVRMVDPHARFVIGEFDNHGRETFVKELLELRVHIRDSRIREIDVQGEKIRMHTQIDFEIDVDGVRHRREHSFHFIVLKIDGRWSVQQLRIK
The protease stability score of the first is higher: 1.1 for the first, 0.64 for the second.
